The text below walks through data of publication PMC9892613, “Thermodynamic analysis of an entropically driven, high-affinity nanobody-HIV p24 interaction” (Biophysical Journal, 2022).

The target of this experiment is T1, HIV-1 capsid protein p24 (His-p24) (HIV-1 group M subtype B, NY5/NL4-3 …, UniProt P12493).
T1 construct: capsid protein p24 of HIV-1, the cut product of the Gag polyprotein; amplified from the template pWISP98-85 (NIH ARP); also called HIV-1 p24; p24 antigen; source: E. coli BL21-Star(DE3)pLysS, pET3a-His-p24, purified in-house; not shown: His6-Cys, N-terminal, kept
The experiment in a line: BLI; in the same nanobody storage buffer (Fig. S5). The settings on record: both partners purified. (BLI is a label-free optical method that tracks binding on a fibre tip over time.)

B1: nanobody 48G11 (59H10 F93D) (VHH)
VHH: DVQLQESGGGLVQAGGSLRLSCAASGSISRFNAMGWWRQAPGKEREFVARIVKGFDPVLADSVKGRFTISIDSAENTLALQMNRLKPEDTAVYYCDAALDTAYWGQGTQVTVSS
notes: as the chain of m2 (59H10, PDB 5O2U chain B) with F93D; made by site-directed mutagenesis; Artificial variant of 59H10 with one changed residue; also called 48G11 (F93D)
Turning to B1, the binding result is “no binding”.
